Patent US7993884B2, “Beta-xylosidase for conversion of plant cell wall carbohydrates to simple sugars” (The United States of America as represented by the …, priority 2006, dated 2011)
Several values for one entry are separate records, joined by “and”; a condition that tells them apart may be missing. Equal values may be shown once. Read-outs that look alike come from different tables or passages of the source.

Key:
[1] = substrate: O=[N+]([O-])c1ccc(O[C@@H]2OC[C@@H](O)[C@H](O)[C@H]2O)cc1; experiment: purified protein, by the assay type; format: biochemical, Selenomonas ruminantium GA192; details: other: untreated control SXA, pH 7.0, 25° C
[2] = substrate: O=[N+]([O-])c1ccc(O[C@@H]2O[C@@H](CO)[C@H](O)[C@H]2O)cc1; experiment: purified protein, by the assay type; format: biochemical, Selenomonas ruminantium GA192; details: other: pH 5.3, 25° C
[3] = substrate: O=[N+]([O-])c1ccc(O[C@@H]2OC[C@@H](O)[C@H](O)[C@H]2O)cc1; experiment: purified protein, by the assay type; format: biochemical, Selenomonas ruminantium GA192; details: other: pH 5.3, 25° C
From the text: Determination of Inhibition Constants

[4] = substrate: O=[N+]([O-])c1ccc(O[C@@H]2OC[C@@H](O)[C@H](O)[C@H]2O)cc1; experiment: purified protein, by the assay type; details: […]
Method: Kinetics with 4NP Substrates
(§1) Two methods were employed for determining initial rates. […] Initial rates were calculated from fitting the absorbance readings versus time to a line (minimum of 4 points per reaction progression) and by using an extinction coefficient of 17.4 mM^−1 cm^−1. In Method B (continuous monitoring), temperature-equilibrated reactions (1 mL) were monitored at 380 nm (for pH values below 6) or 400 nm (for pH values of 6 and above). Reactions were generally monitored 0.3 min for initial rate determinations. Delta extinction coefficients (product-substrate) used for molar conversion were determined by subtracting the absorbance of substrate (at pH 5 so even very minor contaminating 4NP would not contribute) from the absorbance of 4NP for each reaction condition. […] The concentration of 4NP substrates was determined by incubating the substrate with excess enzyme until an end point was reached, adding an aliquot (0.01 to 0.1 mL) to 0.1 M NaOH, recording the absorbance at 400 nm and using the extinction coefficient of 18.3 cm^−1mM^−1. Unless indicated otherwise, for both Methods A and B, reactions were initiated by adding a small aliquot of enzyme (generally 7 μl of enzyme diluted into 10 mM sodium phosphate, pH 7.0, and incubated on wet ice or at ˜25° C.) to the 1-mL, temperature-equilibrated (25° C.) reaction mixtures. For pH studies, buffers of constant ionic strength (I=0.3 M), adjusted with NaCl, were used as indicated: 100 mM succinate-NaOH (pH 4.3-6), 100 mM sodium phosphate (pH 6-8), 30 mM sodium pyrophosphate (pH 8-9), glycine-NaOH (pH 9) and glycylglycine-NaOH (pH 9).

[5] = substrate: O=[N+]([O-])c1ccc(O[C@@H]2OC[C@@H](O[C@@H]3OC[C@@H](O)[C@H](O)[C@H]3O)[C@H](O)[C@H]2O)cc1; experiment: purified protein, by the assay type; details: other: 100 mM sodium phosphate, pH 7.0, 25° C, first step (4NPX2 to 4NPX+D-xylose), not well determined, pH 7.0
[6] = substrate: O=[N+]([O-])c1ccc(O[C@@H]2O[C@@H](CO)[C@H](O)[C@H]2O)cc1; experiment: purified protein, by the assay type
Method: Kinetics with 4NP Substrates
as §1

[7] = substrate: OC1OC[C@@H](O[C@@H]2OC[C@@H](O)[C@H](O)[C@H]2O)[C@H](O)[C@H]1O; experiment: purified protein, by the assay type; details: other: 100 mM succinate-NaOH, pH 5.3, 25° C
[8] = substrate: OC1OC[C@@H](O[C@@H]2OC[C@@H](O[C@@H]3OC[C@@H](O)[C@H](O)[C@H]3O)[C@H](O)[C@H]2O)[C@H](O)[C@H]1O; experiment: purified protein, by the assay type; details: for Km: other: 100 mM succinate-NaOH, pH 5.3, 25° C
[9] = substrate: OC1OC[C@@H](O[C@@H]2OC[C@@H](O[C@@H]3OC[C@@H](O[C@@H]4OC[C@@H](O)[C@H](O)[C@H]4O)[C@H](O)[C@H]3O)[C@H](O)[C@H]2O)[C@H](O)[C@H]1O; experiment: purified protein, by the assay type; details: other: 100 mM succinate-NaOH, pH 5.3, 25° C
[10] = substrate: OC1OC[C@@H](O[C@@H]2OC[C@@H](O[C@@H]3OC[C@@H](O[C@@H]4OC[C@@H](O[C@@H]5OC[C@@H](O)[C@H](O)[C@H]5O)[C@H](O)[C@H]4O)[C@H](O)[C@H]3O)[C@H](O)[C@H]2O)[C@H](O)[C@H]1O; experiment: purified protein, by the assay type; details: other: 100 mM succinate-NaOH, pH 5.3, 25° C
[11] = substrate: OC1OC[C@@H](O[C@@H]2OC[C@@H](O[C@@H]3OC[C@@H](O[C@@H]4OC[C@@H](O[C@@H]5OC[C@@H](O[C@@H]6OC[C@@H](O)[C@H](O)[C@H]6O)[C@H](O)[C@H]5O)[C@H](O)[C@H]4O)[C@H](O)[C@H]3O)[C@H](O)[C@H]2O)[C@H](O)[C@H]1O; experiment: purified protein, by the assay type; details: for Km: other: 100 mM succinate-NaOH, pH 5.3, 25° C
[12] = substrate: OC[C@@H]1O[C@@H](OC[C@@H]2OC(O)[C@H](O)[C@H]2O)[C@H](O)[C@H]1O; experiment: purified protein, by the assay type; details: other: 100 mM succinate-NaOH, pH 5.3, 25° C, pH 5.3
[13] = target: T1, SXA (Selenomonas ruminantium, UniProt O52575)
Method: Initial rates were determined by monitoring reactions continuously at 400 nM for 0.3 min. […] Relative activity remaining data were fitted to equation 3, which describes a first order decay: A is the relative activity remaining at varied times of preincubation, A0 is the relative activity remaining at time zero of the preincubation, kobs is the first order rate constant, and t is the time of preincubation. Apparent affinities for D-xylose and D-glucose were determined by fitting kobs values from the monosaccharide protection studies to equation 4 where kobs is the observed first order rate constant for the decay, k0 is the first order rate constant in the absence of ligand (e.g., D-xylose), I is the ligand concentration in the preincubation mixture, and Ki is the dissociation constant of ligand from the enzyme-ligand complex.
Ligand protection studies contained varied concentrations of D-xylose or D-glucose in the pH 5.3 preincubation buffer at 55° C.

[14] = Isoelectric focusing of native SXA; format: physicochemical; details: IEF pH 3-10 gel
[15] = target: T1, SXA; experiment: pH stability of SXA and protection from low pH inactivation at pH 4.0 by monosaccharides
Method: Buffers of constant ionic strength (I=0.3 M), adjusted with NaCl, were used as indicated: 100 mM succinate-NaOH (pH 3.5-6), 100 mM sodium phosphate (pH 6-8), 30 mM sodium pyrophosphate (pH 8-9), and 100 mM glycine-NaOH (pH 9-10). […] Initial rates were determined by monitoring reactions continuously at 400 nM for 0.3 min. […] Relative activity remaining data were fitted to equation 3, which describes a first order decay: A is the relative activity remaining at varied times of preincubation, A0 is the relative activity remaining at time zero of the preincubation, kobs is the first order rate constant, and t is the time of preincubation. Apparent affinities for D-xylose and D-glucose were determined by fitting kobs values from the monosaccharide protection studies to equation 4 where kobs is the observed first order rate constant for the decay, k0 is the first order rate constant in the absence of ligand (e.g., D-xylose), I is the ligand concentration in the preincubation mixture, and Ki is the dissociation constant of ligand from the enzyme-ligand complex.

[16] = D-xylose α:β ratio 1:2.5 experiment
[17] = D-xylose α:β ratio 6:1 experiment
[18] = 4NP inhibition experiment, HPLC
[19] = other: 100 mM MES-NaOH, pH 6.00, 25° C, Method B, 50% sucrose, η/ηo 6.85, pH 6.0
[20] = other: 100 mM MES-NaOH, pH 6.00, 25° C, Method B, η/ηo 1.00, pH 6.0
[21] = other: 100 mM sodium phosphate, pH 7.0, 25° C, Method B, second step (4NPX to 4NP+D-xylose), pH 7.0
[22] = other: pH 5.3, 25° C (Example 1), approximate, pH 5.3

B1: Selenomonas ruminantium GA192 β-D-xylosidase (SXA), wild type, SEQ ID NO: 2 (Pseudoselenomonas ruminantium) (protein)
chain: MNIQNPVLKGFNPDPSIVRAGDDYYIATSTFEWFPGVQIHHSKDLVHWHLVAHPLSTTEFLDMKGNPDSGGIWAPDLSYADGKFWLIYTDVKVVDGMWKDCHNYLTTAEDIKGPWSKPILLNGAGFDASLFHDPSGKKYLVNMYWDQRVYHHNFYGIALQEYSVAEEKLIGKPEIIYKGTDIAYTEGPHLYYINDMYYLMTAEGGTTYQHSETIARSKTIHGPYEIQPDYPLLSAWKEVHNPLQKCGHASLVETQNGQWYLAHLTGRPLPAPAGFPSREREQHAFCPLGRETAIQKIEWQDGWPVVVGGQQGSLEVEAPDLPQQEWAPTYEERDDFDKDTLNINFQTLRIPFSEHLGSLTARPGFLRLYGRESLQSKFTQAHIARRWQSFNFDAGTSVEFSPNSFQQMAGLTCYYNTENWSSIHVTWNEEKGRIIDLVTADNGTFSMPLAGAEIPIPDEVKTVHFKVSVRGRIYQYAYSFDGETFHTLPIELPSWKLSDDYVRGGGFFTGAFVGINAIDITGTALPADFDYFTYKELD
Km [1]: 0.380 ± 0.005 mM | kcat [1]: 12.2 ± 0.05 s⁻¹ | Km [2, 16]: 0.900 ± 0.013 mM | kcat [2, 16]: 2.79 ± 0.01 s⁻¹ | Km [2, 17]: 0.880 ± 0.13 mM | kcat [2, 17]: 2.78 ± 0.01 s⁻¹ | Km [3, 18]: 0.758 ± 0.059 mM | kcat [3, 18]: 26.7 ± 1.1 s⁻¹ | Km ([3]; D-xylose inhibition experiment): 0.716 ± 0.032 mM | kcat ([3]; D-xylose inhibition experiment): 32.1 ± 0.5 s⁻¹ | Km [4, 19]: 0.637 ± 0.081 mM | Km [4, 20]: 0.699 ± 0.035 mM | Km [4, 21]: 0.443 ± 0.008 mM | kcat [4, 21]: 16.2 ± 0.09 s⁻¹ | Km ([4]; other: pH 5.3, 25° C, Method A, 50% sucrose, η/ηo 6.12, pH 5.3): 0.690 ± 0.035 mM | Km [5]: 0.69 ± 0.43 mM | kcat [5]: 50.5 ± 25.7 s⁻¹ | Km [6, 19]: 0.754 ± 0.101 mM | Km [6, 20]: 0.745 ± 0.036 mM | Km ([6]; other: 100 mM succinate-NaOH, pH 5.3, 25° C, Method A, no sucrose, pH 5.3): 0.810 ± 0.050 mM | kcat ([6]; other: pH profile, I=0.3 M, Method B): 3.25 ± 0.05 s⁻¹ | Km [7]: 2.06 ± 0.08 mM | Km ([7]; pH 5.3): 4.2 ± 0.5 mM | Km [8]: 2.12 ± 0.10 mM | Km ([8]; pH 5.3): 3.8 ± 0.6 mM | kcat [8, 22]: 170 s⁻¹ | Km [9]: 2.75 ± 0.23 mM | Km ([9]; pH 5.3): 4.0 ± 0.3 mM | Km [10]: 2.86 ± 0.38 mM | Km ([10]; pH 5.3): 3.7 ± 0.6 mM | Km [11]: 3.12 ± 0.21 mM | Km ([11]; pH 5.3): 2.7 ± 0.5 mM | kcat [11, 22]: 100 s⁻¹ | Km [12]: 1.2 ± 0.1 mM

B2: SXA: β-D-xylosidase (E.C. 3.2.1.37) of Selenomonas ruminantium GA192, glycoside hydrolase family 43, GenBank AAB97967, SEQ. ID No. 2 (protein)
chain: MNIQNPVLKGFNPDPSIVRAGDDYYIATSTFEWFPGVQIHHSKDLVHWHLVAHPLSTTEFLDMKGNPDSGGIWAPDLSYADGKFWLIYTDVKVVDGMWKDCHNYLTTAEDIKGPWSKPILLNGAGFDASLFHDPSGKKYLVNMYWDQRVYHHNFYGIALQEYSVAEEKLIGKPEIIYKGTDIAYTEGPHLYYINDMYYLMTAEGGTTYQHSETIARSKTIHGPYEIQPDYPLLSAWKEVHNPLQKCGHASLVETQNGQWYLAHLTGRPLPAPAGFPSREREQHAFCPLGRETAIQKIEWQDGWPVVVGGQQGSLEVEAPDLPQQEWAPTYEERDDFDKDTLNINFQTLRIPFSEHLGSLTARPGFLRLYGRESLQSKFTQAHIARRWQSFNFDAGTSVEFSPNSFQQMAGLTCYYNTENWSSIHVTWNEEKGRIIDLVTADNGTFSMPLAGAEIPIPDEVKTVHFKVSVRGRIYQYAYSFDGETFHTLPIELPSWKLSDDYVRGGGFFTGAFVGINAIDITGTALPADFDYFTYKELD
modifications: selenomonas ruminantium
temperature up to which the enzyme is stable [13]: up to 55 °C | kobs, first-order inactivation rate constant of SXA ([13]; pH 5.3, 55° C., absence of monosaccharide (0 mM)): 0.0252 ± 0.0020 min⁻¹ and 0.0256 ± 0.0015 min⁻¹ | isoelectric point [14]: approximately 4.4 | pH below which SXA is unstable [15]: below 4.1 | kobs, first-order inactivation rate constant of SXA ([15]; pH 4.0, 25° C., absence of monosaccharide (0 mM)): 0.0784 ± 0.0023 min⁻¹ and 0.0518 ± 0.0037 min⁻¹
